Experimental data as given in patent US20260116991A1 (HAINAN SIMCERE ZAIMING PHARMACEUTICAL, published 2026).
Residue numbers refer to the chain shown, from its start. Each block holds one binder with its values, some of them ahead of it.

Legend:
[1] = target: T1, monkey GPC3 on HEK293T-monkey GPC3 cells (monkey); assay: FACS on HEK293T-monkey GPC3 cells
T1 construct: whole, on cells

[2] = target: T2, human GPC3-His protein (human, UniProt P51654 25-559, limits assumed); assay: SPR, antibody captured on Protein A chip, human GPC3-His injected, 1:1 Langmuir model;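 note: flow cell at 25 °C, antigen injected for 240 s at five twofold dilutions starting at 200 nM, dissociation followed up to 600 s, double-referenced sensorgrams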
T2 construct: also called human GPC3 protein; not shown: His tag

- EC50 [1]: 2.62 nM
- Max MFI [1]: 24300 MFI
- Kd [2]: 8.49 nM
- koff [2]: 0.00231 s⁻¹
- kon [2]: 272000 M⁻¹ s⁻¹
B1: hAb005LH1L1b (antibody, human IgG1, V domains shown)
VH: EVQLVQSGAEVKKPGASVKVSCKASGYTFTDYEMHWVRQAPGQGLEWMGAIDPETGNTAYIQKFKGRVTMTTDKSTSTAYMELRSLRSDDTAVYYCTRFYSYSHWGQGTTVTVSS
VL: DIVMTQTPLSLPVTPGEPASISCRSSQSLVHSNRNTYLHWYLQKPGQSPQLLIYKVSNRFSGVPDRFSGSGSGTDFTLKISRVEAEDVGVYYCSQNTHVPPTFGGGTKVEIK
notes: Humanized F3.54.12

- EC50 [1]: 1.73 nM
- Max MFI [1]: 31800 MFI
- Kd [2]: 7.41 nM
- koff [2]: 0.00125 s⁻¹
- kon [2]: 168000 M⁻¹ s⁻¹
B2: hAb006LH1L1b (antibody, human IgG1, V domains shown)
VH: EVQLVQSGAEVKKPGSSVKVSCKASGYTFSDYEIHWVRQAPGQGLEWMGAIDPKTGNTAYNQKFMGRVTITADKSTSTAYMELSSLRSEDTAVYYCTRYFSFAYWGQGTLVTVSS
VL: B1 VL with S28T, L29F, R34A, H39Q, S94F, N96G, T97S, P101Y, G105Q, V109L
notes: Humanized F3.38.7

- EC50 [1]: 1.65 nM
- Max MFI [1]: 32800 MFI
- Kd [2]: 4.3 nM
- koff [2]: 0.000678 s⁻¹
- kon [2]: 158000 M⁻¹ s⁻¹
B3: hAb006LH2L1 (antibody, human IgG1, V domains shown)
VH: B2 VH with S30T
VL: B1 VL with S28T, L29F, R34G, H39Q, S94F, N96G, T97S, P101Y, G105Q, V109L
notes: Humanized F3.38.7

- EC50 [1]: 4.06 nM
- Max MFI [1]: 91600 MFI
- Kd [2]: 3.15 nM
- koff [2]: 0.001 s⁻¹
- kon [2]: 319000 M⁻¹ s⁻¹
B4: hAb006LH3L1c (antibody, human IgG1, V domains shown)
VH: B2 VH with S30T, I70L
VL: B1 VL with S28T, L29F, H39Q, S94F, N96G, T97S, P101Y, G105Q, V109L
notes: Humanized F3.38.7

- EC50 [1]: 2.42 nM
- Max MFI [1]: 22800 MFI
- Kd [2]: 7.85 nM
- koff [2]: 0.00213 s⁻¹
- kon [2]: 271000 M⁻¹ s⁻¹
B5: hAb005LH2L1b (antibody, human IgG1, V domains shown)
VH: B1 VH with M70L
VL: B1 VL
notes: Humanized F3.54.12

- EC50 [1]: 4.1 nM
- Max MFI [1]: 36300 MFI
- Kd [2]: 1.05 nM
- koff [2]: 0.000114 s⁻¹
- kon [2]: 109000 M⁻¹ s⁻¹
B6: hAb007LH1L1 (antibody, human IgG1, V domains shown)
VH: B2 VH with I34M, A50T, K54E, M65K, Y99P, F100Y, F102L, A103T
VL: B1 VL with L29F, R34G, N35D, H39Q, S94F, N96G, T97S, P101Y, G105Q, V109L
notes: Humanized F3.81.19

- EC50 [1]: 1.78 nM
- Max MFI [1]: 32500 MFI
- Kd [2]: 8.4 nM
- koff [2]: 0.00136 s⁻¹
- kon [2]: 162000 M⁻¹ s⁻¹
B7: hAb006LH3L1b (antibody, human IgG1, V domains shown)
VH: B2 VH with S30T, I70L
VL: B1 VL with S28T, L29F, R34A, H39Q, S94F, N96G, T97S, P101Y, G105Q, V109L
notes: Humanized F3.38.7

- EC50 [1]: 1.83 nM
- Max MFI [1]: 31500 MFI
- Kd [2]: 9.28 nM
- koff [2]: 0.00128 s⁻¹
- kon [2]: 138000 M⁻¹ s⁻¹
B8: hAb006LH2L1b (antibody, human IgG1, V domains shown)
VH: B2 VH with S30T
VL: B1 VL with S28T, L29F, R34A, H39Q, S94F, N96G, T97S, P101Y, G105Q, V109L
notes: Humanized F3.38.7

- EC50 [1]: 13.2 nM
- Max MFI [1]: 35800 MFI
- Kd [2]: 3.58 nM
- koff [2]: 0.000315 s⁻¹
- kon [2]: 88000 M⁻¹ s⁻¹
B9: hAb007LH2L1b (antibody, human IgG1, V domains shown)
VH: B2 VH with S30T, I34M, A50T, K54E, M65K, Y99P, F100Y, F102L, A103T
VL: B1 VL with L29F, N35D, H39Q, S94F, N96G, T97S, P101Y, G105Q, V109L
notes: Humanized F3.81.19

- EC50 [1]: 8.8 nM
- Max MFI [1]: 73600 MFI
- Kd [2]: 4.28 nM
- koff [2]: 0.000397 s⁻¹
- kon [2]: 92700 M⁻¹ s⁻¹
B10: hAb007LH1L1c (antibody, human IgG1, V domains shown)
VH: B2 VH with I34M, A50T, K54E, M65K, Y99P, F100Y, F102L, A103T
VL: B1 VL with L29F, R34A, N35D, H39Q, S94F, N96G, T97S, P101Y, G105Q, V109L
notes: Humanized F3.81.19

- EC50 [1]: 12.4 nM
- Max MFI [1]: 35400 MFI
- Kd [2]: 2.21 nM
- koff [2]: 0.000228 s⁻¹
- kon [2]: 103000 M⁻¹ s⁻¹
B11: hAb007LH1L1b (antibody, human IgG1, V domains shown)
VH: B2 VH with I34M, A50T, K54E, M65K, Y99P, F100Y, F102L, A103T
VL: B1 VL with L29F, N35D, H39Q, S94F, N96G, T97S, P101Y, G105Q, V109L
notes: Humanized F3.81.19
